# According to patent US20110212084A1 (AstraZeneca / MedImmune, published 2011):
# Substitutions are numbered along the chain they refer to.
# B1: Antibody 10 (IgG) (antibody, V domains shown)
# VH: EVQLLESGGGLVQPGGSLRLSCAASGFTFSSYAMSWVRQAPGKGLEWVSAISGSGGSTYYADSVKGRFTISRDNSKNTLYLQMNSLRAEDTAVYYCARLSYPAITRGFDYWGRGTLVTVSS
# VL: SYVLTQPPSVSVSPGQTASITCSGDKLGDKYASWYRQRSGQSPVLVIYQDDKRPSGIPERFSGSNSGNTATLTISGTHTMDEADYYCLAWDTRTSGAVFGGGTKLTVL
# B2: Antibody 10 (scFv) (scFv, V domains shown)
# VH: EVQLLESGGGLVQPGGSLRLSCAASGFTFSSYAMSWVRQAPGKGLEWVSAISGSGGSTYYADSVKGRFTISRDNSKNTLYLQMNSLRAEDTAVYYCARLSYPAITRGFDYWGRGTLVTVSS
# VL: B1 VL
# notes: purified scFv
# B3: Antibody 36 (scFv) (scFv, V domains shown)
# VH: EVQLLESGGGLVQPGGSLRLSCAASGFTFSSYAMSWVRQAPGKGLEWVSAISGSGGRTYYADSVKGRFTISRDNSKNTLYLQMNSLRAEDTAVYYCARHIAVAGTRGFDYWGRGTLVTVSS
# VL: B1 VL with Y2F, V3M, T5S, K30T
# notes: purified scFv
# B4: Antibody 12 (scFv) (scFv, V domains shown)
# VH: B3 VH
# VL: B1 VL with Y2F, V3M, T5S, K30T
# notes: purified scFv
# B5: Antibody 34 (scFv) (scFv, V domains shown)
# VH: EVQLLESGGGLVQPGGSLRLSCAAPGFTLSSYAMSWVRQAPGKGLEWVSAISGGSGGRTYYADSVKGRFTISRDNSKNTLYLQMNSLRAEDTAVYYCARHIAVAGTRGFDYWGRGTLVTVSS
# VL: B1 VL with V12A, K30T, S55P, S75R, T106S
# notes: purified scFv
# B6: Antibody 33 (scFv) (scFv, V domains shown)
# VH: B5 VH with R19S, L29F, R73K
# VL: B1 VL with K30T, Q41L, V44A
# notes: purified scFv
# B7: Antibody 15 (scFv) (scFv, V domains shown)
# VH: B5 VH with L29F
# VL: B1 VL with K30T, K52R
# notes: purified scFv
# B8: Antibody 9 (scFv) (scFv, V domains shown)
# VH: B5 VH with P25S, L29F
# VL: B1 VL with Y2F, T5S, K30T
# notes: purified scFv
# B9: Antibody 8 (scFv) (scFv, V domains shown)
# VH: B5 VH with L29F
# VL: B1 VL with K30T
# notes: purified scFv
# B10: Antibody 31 (scFv) (scFv, V domains shown)
# VH: B3 VH with H99L, I100S, A101Y, V102P, G104I
# VL: B1 VL
# notes: purified scFv
# B11: Antibody 28 (scFv) (scFv, V domains shown)
# VH: B3 VH with H99L, I100W, A101F, V102P, G104I
# VL: B1 VL with K30T
# notes: purified scFv
# B12: Antibody 29 (scFv) (scFv, V domains shown)
# VH: B3 VH with H99L, I100T, A101F, V102P, G104I
# VL: B1 VL with K30T
# notes: purified scFv
# B13: Antibody 14 (scFv) (scFv, V domains shown)
# VH: B3 VH with S25P, A33P, R57S
# VL: B1 VL with Y2F, T5S, K30T
# notes: purified scFv
# B14: Antibody 20 (scFv) (scFv, V domains shown)
# VH: B3 VH with H99S, I100T, A101Y, V102F, G104S
# VL: B1 VL
# notes: purified scFv
# B15: Antibody 21 (scFv) (scFv, V domains shown)
# VH: B3 VH with H99L, I100T, A101F, V102P, G104I
# VL: B1 VL
# notes: purified scFv
# B16: Antibody 30 (scFv) (scFv, V domains shown)
# VH: B3 VH with H99L, I100S, A101Y, V102P, G104I
# VL: B1 VL with K30T
# notes: purified scFv
# B17: Antibody 5 (scFv) (scFv, V domains shown)
# VH: B3 VH
# VL: B1 VL with K30T, K52R, V107A
# notes: purified scFv
# B18: Antibody 23 (scFv) (scFv, V domains shown)
# VH: B5 VH with P25S, G26E, L29F, S30G
# VL: B1 VL with K30T, T69A
# notes: purified scFv
# B19: Antibody 4 (scFv) (scFv, V domains shown)
# VH: B3 VH with L116P
# VL: B1 VL with Y2F, K30T
# notes: purified scFv
# B20: Antibody 24 (scFv) (scFv, V domains shown)
# VH: B5 VH with L29F, S121P
# VL: B1 VL with Y2F, K30T
# notes: purified scFv
# B21: Antibody 19 (scFv) (scFv, V domains shown)
# VH: B5 VH with P25S, L29F, I51V
# VL: B1 VL with Y2F, K30T, G76R
# notes: purified scFv
# B22: Antibody 18 (scFv) (scFv, V domains shown)
# VH: B5 VH with P25S, L29F, M34V
# VL: B1 VL with K30T, N68D, H78R
# notes: purified scFv
# B23: Antibody 17 (scFv) (scFv, V domains shown)
# VH: B5 VH with L29F
# VL: B1 VL with K30T, N68D
# notes: purified scFv
# B24: Antibody 16 (scFv) (scFv, V domains shown)
# VH: B5 VH with L29F
# VL: B1 VL with K30T, K104E
# notes: purified scFv
# B25: Antibody 11 (scFv) (scFv, V domains shown)
# VH: B3 VH with L86P, T118A
# VL: B1 VL with T21A, K30T
# notes: purified scFv
# B26: Antibody 3 (scFv) (scFv, V domains shown)
# VH: B3 VH
# VL: B1 VL with K30T, N68D
# notes: purified scFv
# B27: Antibody 27 (scFv) (scFv, V domains shown)
# VH: B3 VH with H99S, I100T, A101Y, V102F, G104S
# VL: B1 VL with K30T
# notes: purified scFv
# B28: Antibody 2 (scFv) (scFv, V domains shown)
# VH: B3 VH
# VL: B1 VL with K30T, K52R
# notes: purified scFv
# B29: Antibody 7 (scFv) (scFv, V domains shown)
# VH: B3 VH with S54G
# VL: B1 VL with V12A, K30T
# notes: purified scFv
# B30: Antibody 26 (scFv) (scFv, V domains shown)
# VH: B3 VH with F27L, S31G, T78M
# VL: B1 VL with Y2F, K30T, S75G
# notes: purified scFv
# B31: Antibody 6 (scFv) (scFv, V domains shown)
# VH: B3 VH with R72K, T115A
# VL: B1 VL with K30T
# notes: purified scFv
# B32: Antibody 22 (scFv) (scFv, V domains shown)
# VH: B3 VH with V64A, S85G
# VL: B1 VL with K30T, A32T, I57V
# notes: purified scFv
# B33: Antibody 13 (scFv) (scFv, V domains shown)
# VH: B3 VH with T69A, I70V
# VL: B1 VL with K30T, K52R
# notes: purified scFv
# B34: Antibody 25 (scFv) (scFv, V domains shown)
# VH: B5 VH with L29F, V120I
# VL: B1 VL with Y2F, K30T
# notes: purified scFv
# Target: T1, human IgEλ (U266 derived) (human, UniProt P01854 1-546)
# Test: cell-based or functional assay
row,Binder,"RBL-ER51 calcium signalling IC50 (nM) Geomean, human IgE 25 ng/ml"
1,B1,1.5 nM

# Target: T2, human IgEλ (U266 derived) (human, UniProt P01854 1-546)
# T2 construct: mature; full-length IgE purified from U266 cells (Ikeyama et al. 1986); labelled with europium cryptate in the HTRF assays; also called human IgE (U266-derived)
# Test: HTRF receptor-ligand competition, scFv titrated; Eu-cryptate human IgE (U266) binding to human FcεRI-Fc; geomean
# Description: (§1) Purified scFv were tested in a receptor-ligand binding HTRF® (Homogeneous Time-Resolved Fluorescence) assay format for inhibition of either human IgE (U266-derived [Ikeyama et. al. 1986. Molecular Immunology 23 (2); p159-167]) or cyno IgE (recombinant, see materials and methods) labelled with europium cryptate (CIS bio International 62EUSPEA), binding to human FcεR1-Fc (in house NS0 cell produced). Example scFv potency data is included in Table 5a
# as §1, with “produced).” for “produced). Example scFv potency data is included in Table 5a”
row,Binder,IC50
1,B2,10 nM
2,B3,8 nM
3,B4,8 nM
4,B5,3 nM
5,B6,14 nM
6,B7,4 nM
7,B8,6 nM

# Target: T1, human IgEλ (U266 derived)
# Test: as above
# Description: as §1
# as §1, with “produced).” for “produced). Example scFv potency data is included in Table 5a”
row,Binder,IC50
1,B9,8 nM
2,B10,9 nM
3,B11,4 nM
4,B12,6 nM
5,B13,7 nM
6,B14,5 nM
7,B15,4 nM
8,B16,4 nM
9,B17,6 nM
10,B18,7 nM
11,B19,5.4 nM
12,B20,4 nM
13,B21,9 nM
14,B22,6 nM
15,B23,7 nM
16,B24,10 nM
17,B25,7 nM
18,B26,5 nM
19,B27,2 nM
20,B28,7 nM
21,B29,8 nM
22,B30,8 nM
23,B31,8 nM
24,B32,7 nM
25,B33,9 nM
26,B34,6 nM

# Target: T3, cynomolgus IgE (recombinant chimaeric D12 variable region / cynomolgus IgE constant region) (cynomolgus monkey (constant region))
# T3 construct: also called cyno IgE; cynomolgus IgE (in house HEK-EBNA derived)
# T3 sequence (heavy, as listed by the source limits assumed, chain 1 of 2): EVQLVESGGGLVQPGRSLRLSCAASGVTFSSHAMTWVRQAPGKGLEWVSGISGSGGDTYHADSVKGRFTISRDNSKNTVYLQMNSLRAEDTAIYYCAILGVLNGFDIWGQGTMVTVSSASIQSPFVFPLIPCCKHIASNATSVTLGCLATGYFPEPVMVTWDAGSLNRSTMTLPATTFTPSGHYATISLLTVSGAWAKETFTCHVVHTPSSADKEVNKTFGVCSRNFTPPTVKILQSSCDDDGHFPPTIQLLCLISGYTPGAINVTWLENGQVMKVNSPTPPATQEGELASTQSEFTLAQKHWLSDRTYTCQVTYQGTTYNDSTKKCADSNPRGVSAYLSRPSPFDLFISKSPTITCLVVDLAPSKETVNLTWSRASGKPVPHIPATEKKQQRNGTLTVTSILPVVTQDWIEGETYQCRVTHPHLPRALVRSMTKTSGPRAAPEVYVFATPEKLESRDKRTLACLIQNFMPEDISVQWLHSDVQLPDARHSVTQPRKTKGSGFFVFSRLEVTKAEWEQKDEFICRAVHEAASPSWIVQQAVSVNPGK
# T3 sequence (light, as listed by the source limits assumed, chain 2 of 2): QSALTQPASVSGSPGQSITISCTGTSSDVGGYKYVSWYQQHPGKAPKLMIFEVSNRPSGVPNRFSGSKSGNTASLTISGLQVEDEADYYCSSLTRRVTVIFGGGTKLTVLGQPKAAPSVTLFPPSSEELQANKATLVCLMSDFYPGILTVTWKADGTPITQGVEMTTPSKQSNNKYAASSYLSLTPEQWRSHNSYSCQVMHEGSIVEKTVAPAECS
# Test: HTRF receptor-ligand competition, scFv titrated; Eu-cryptate cynomolgus IgE binding to human FcεRI-Fc; geomean
# Description: as §1
# as §1, with “produced).” for “produced). Example scFv potency data is included in Table 5a”
row,Binder,IC50
1,B9,438 nM
2,B3,407 nM
3,B4,473 nM
4,B17,356 nM
5,B18,331 nM
6,B19,600 nM
7,B20,196 nM
8,B21,197 nM
9,B22,129 nM
10,B5,500 nM
11,B23,264 nM
12,B24,280 nM
13,B26,237 nM
14,B27,379 nM
15,B28,398 nM
16,B29,569 nM
17,B30,359 nM
18,B6,533 nM
19,B7,135 nM
20,B8,138 nM
21,B34,188 nM

# Target: T4, human IgE (source not stated for the assay) (human, UniProt P01854-1 1-428)
# T4 construct: also called purified human IgE; IgE (Calbiochem or U266-derived)
# T4 sequence (P01854 other isoform, or with tags, fused parts or gaps): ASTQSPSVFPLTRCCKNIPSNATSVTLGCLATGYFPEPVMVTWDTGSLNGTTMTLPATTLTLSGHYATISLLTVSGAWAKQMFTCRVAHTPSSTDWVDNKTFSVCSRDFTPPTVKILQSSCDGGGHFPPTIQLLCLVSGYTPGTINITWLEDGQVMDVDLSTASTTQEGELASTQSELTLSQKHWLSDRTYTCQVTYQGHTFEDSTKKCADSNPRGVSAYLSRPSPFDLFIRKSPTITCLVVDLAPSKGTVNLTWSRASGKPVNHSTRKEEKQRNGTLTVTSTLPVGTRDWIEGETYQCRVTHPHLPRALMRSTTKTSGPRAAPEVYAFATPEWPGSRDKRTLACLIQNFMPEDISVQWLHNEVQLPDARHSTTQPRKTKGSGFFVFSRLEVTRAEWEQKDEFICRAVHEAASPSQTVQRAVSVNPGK
# Test: SPR, BIAcore 2000; IgE amine-coupled to CM5 chip, IgG as analyte, bivalent analyte model; geomean
# Description: The binding affinity of purified IgG samples of a representative number of clones to human and cynomolgus IgE was determined by surface plasmon resonance using BIAcore 2000 biosensor (BIAcore AB) essentially as described by Karlsson et al 1991; Journal of Immunological Methods 145 (1-2) 229-240. In brief, purified human or cynomolgus IgE was covalently coupled to the surface of a CM5 sensor chip (BIAcore) using standard amine coupling reagents according to the manufacturer's instructions to provide a surface density of 100 RU. IgG samples prepared in HBS-EP buffer (BIAcore (AB), at a range of concentrations, between 250 nM and 15.6 nM were passed over the sensor chip surface. The surface was regenerated using 10 mM Glycine, pH 1.75 between each injection of antibody. The resulting sensorgrams were evaluated using BIA evaluation 3.1 software and fitted to a bivalent analyte model, to provide relative binding data.
row,Binder,Kd
1,B1,1.3 nM
